Experiment [1] deals with Exendin-4 (Heloderma suspectum) (UniProt P26349). Description: static and dynamic light scattering (SLS/DLS); peptide concentration series in PBS, pH 7.4, 23 °C; scattering angle 90°; relative molecular mass and Stokes radius; monomer to oligomer.
The target of experiment [2] is Exendin-4_F22R. Description: concentration-dependent relative molecular mass of self-association (method not named in legend). Conditions: parent: est. 3.2; read off a plot.
Experiment [3] concerns the target Exendin-4_F22R. The experiment in a line: concentration-dependent Stokes radius of self-association (method not named in legend). The conditions noted are these: parent: est. 2.3; read off a plot.

In general, stoichiometry N refers to the number of molecules, sites or subunits per partner or assembly.

In the case of “Exendin-4 (from UniProt P26349 48-87) (peptide)”, the stoichiometry N in experiment [1] amounted to 3.
On to Exendin-4 (from UniProt P26349) F22R, for which the other: relative molecular mass Mrel in the experiment with Exendin-4_F22R [2] worked out at 0.95. In addition, the other: Stokes radius RS with Exendin-4_F22R [3] worked out at 1.6 nm.

The values are drawn from publication PMC8472270.
